# Measured values: US20050119205A1, “Methods of modulating heme oxygenase-1 expression and treating heme oxygenase-1 mediated conditions” (published 2005)
# T1: biliverdin reductase (hBVR) (Homo sapiens, UniProt P53004 SEQ:1-296)
# T1 chain: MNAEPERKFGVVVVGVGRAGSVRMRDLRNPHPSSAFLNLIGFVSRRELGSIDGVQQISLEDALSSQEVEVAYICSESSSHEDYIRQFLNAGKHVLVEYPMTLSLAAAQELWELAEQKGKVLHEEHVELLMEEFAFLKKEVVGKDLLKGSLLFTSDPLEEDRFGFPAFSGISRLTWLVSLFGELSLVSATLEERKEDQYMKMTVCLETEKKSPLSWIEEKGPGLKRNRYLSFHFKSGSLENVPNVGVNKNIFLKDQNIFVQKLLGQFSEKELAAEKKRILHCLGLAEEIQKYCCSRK
# T2: heme oxygenase-1 (HO-1), in vitro translated (UniProt P09601 P09601:1-288)
# T2 sequence: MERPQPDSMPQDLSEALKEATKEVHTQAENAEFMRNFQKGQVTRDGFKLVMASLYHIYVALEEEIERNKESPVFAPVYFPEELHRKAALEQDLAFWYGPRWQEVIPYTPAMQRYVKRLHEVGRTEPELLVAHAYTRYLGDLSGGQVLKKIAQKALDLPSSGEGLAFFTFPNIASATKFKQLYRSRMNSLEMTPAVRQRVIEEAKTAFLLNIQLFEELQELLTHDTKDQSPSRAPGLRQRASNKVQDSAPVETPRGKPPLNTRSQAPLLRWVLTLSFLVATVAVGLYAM
# T3: heme oxygenase-1 (hHO-1), E. coli expressed (Homo sapiens, UniProt P09601 P09601:1-288)
# T3 sequence: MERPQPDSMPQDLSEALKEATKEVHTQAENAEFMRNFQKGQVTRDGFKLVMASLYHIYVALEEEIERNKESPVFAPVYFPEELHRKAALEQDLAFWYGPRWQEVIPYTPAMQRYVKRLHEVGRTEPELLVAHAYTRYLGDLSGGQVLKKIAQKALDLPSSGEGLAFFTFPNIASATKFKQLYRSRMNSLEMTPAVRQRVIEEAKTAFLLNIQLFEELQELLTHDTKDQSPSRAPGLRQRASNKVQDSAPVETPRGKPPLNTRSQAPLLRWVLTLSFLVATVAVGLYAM
# T4: hBVR L150A (Homo sapiens, UniProt P53004 SEQ:1-296, L150A)
# T4 sequence: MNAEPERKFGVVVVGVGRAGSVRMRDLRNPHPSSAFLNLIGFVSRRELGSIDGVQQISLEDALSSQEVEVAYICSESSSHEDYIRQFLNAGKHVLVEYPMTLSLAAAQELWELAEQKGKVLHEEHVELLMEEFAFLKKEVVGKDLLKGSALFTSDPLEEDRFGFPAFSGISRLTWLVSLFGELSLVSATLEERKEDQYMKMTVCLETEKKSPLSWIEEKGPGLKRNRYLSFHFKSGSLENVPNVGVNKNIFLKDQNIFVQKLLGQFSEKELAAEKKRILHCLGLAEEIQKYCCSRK
# T5: hBVR L157A (Homo sapiens, UniProt P53004 SEQ:1-296, L157A)
# T5 sequence: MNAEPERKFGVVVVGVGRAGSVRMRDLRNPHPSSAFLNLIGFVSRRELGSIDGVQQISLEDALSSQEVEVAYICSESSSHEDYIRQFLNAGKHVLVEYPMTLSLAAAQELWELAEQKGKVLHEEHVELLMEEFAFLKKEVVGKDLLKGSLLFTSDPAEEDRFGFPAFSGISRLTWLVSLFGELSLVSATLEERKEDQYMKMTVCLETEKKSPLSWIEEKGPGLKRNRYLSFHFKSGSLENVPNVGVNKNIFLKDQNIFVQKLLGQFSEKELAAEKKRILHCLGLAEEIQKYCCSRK
# T6: hBVR K143A (Homo sapiens, UniProt P53004 SEQ:1-296, K143A)
# T6 sequence: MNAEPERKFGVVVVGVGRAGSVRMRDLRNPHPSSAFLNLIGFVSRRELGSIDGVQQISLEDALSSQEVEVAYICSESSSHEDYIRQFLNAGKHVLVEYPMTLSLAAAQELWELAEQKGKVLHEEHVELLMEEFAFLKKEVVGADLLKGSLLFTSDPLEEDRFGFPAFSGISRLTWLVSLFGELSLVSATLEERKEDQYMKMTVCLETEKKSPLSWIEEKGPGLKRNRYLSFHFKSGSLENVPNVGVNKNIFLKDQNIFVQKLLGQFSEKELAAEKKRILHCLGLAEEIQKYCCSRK
# Key:
# [1] = molecular target: the molecule itself; assay: native PAGE (approx. 69 kDa band) against SDS-PAGE (~35 and ~40 kDa bands) of in vitro translated protein
# Procedure: The transcribed mRNA was translated in the presence of [35S] methionine using rabbit reticulocyte lysate. In vitro translation was performed using micrococcal nuclease treated rabbit reticulocyte lysate (Promega). 50 μl reaction mixture was prepared by using 35 μl lysate, 1 μl of 0.1 M DTT, 2 μl of 1 mM amino acid mixture minus methionine, 1 μl of RNase inhibitor and 5 μl translation grade [³⁵S] methionine. 5 μl transcribed mRNA was added to the above reaction mixture and immediately incubated at 30° C. for 90 minutes. The in vitro translated proteins were resolved on 12% SDS or native polyacrylamide gel along with rainbow or native high molecular weight markers, respectively (Amersham Pharmacia). The gels were fixed in 10% acetic acid and 30% methanol then treated with autoradiography enhancer (Amplify, Amersham Pharmacia) for 30 min and dried under vacuum at 80° C. for 2 h, and autoradiographed at −70° C.
# In vitro translated protein was assayed on native gel immediately after synthesis. […] A portion of the translated protein was treated with SDS and analyzed on denaturing 12% polyacrylamide gel.
# Next, whether the protein synthesized by reticulocyte lysate is in fact hBVR was tested. […] As shown in the autoradiogram, two prominent bands at ˜35 and ˜40 kDa were detected. hBVR, based on its predicted amino acid composition, has a molecular weight of ˜34 kDa (Maines et al., Eur. J. Biochem.
# [2] = molecular target: the molecule itself; assay: native 12% polyacrylamide gel, homodimer (~69 kDa band) formation
# Procedure: In vitro translated protein was assayed on native gel immediately after synthesis. One μl of in vitro translated material was added to 2 μl (25 ng) of annealed, unlabelled control DNA fragment. To this 0.4 μg of poly dI•dC (Amersham Pharmacia) in 14 μl DNA binding buffer (10 mM Tris-chloride [pH 7.4], 50 mM NaCl, 1 mM MgCl₂, 1 mM EDTA, 1 mM DTT, 5% glycerol) was added. It was incubated for 5 min at room temperature and after adding 5 μl loading buffer (1.5×DNA binding buffer with bromophenol blue dye) samples were resolved on 12% native polyacrylamide gel in TAE buffer at 35 milliamps. The control DNA helps to prevent the formation of nonspecific protein aggregates, thereby increasing the resolution of protein bands (Halazonetis et al., Cell 55:917-924 (1988), which is hereby incorporated by reference in its entirety). A portion of the translated protein was treated with SDS and analyzed on denaturing 12% polyacrylamide gel.
# (§1) For this set of experiments, the [³⁵S] methionine-labeled mutant BVR proteins were generated by in vitro translation and assayed on a 12% native gel for detection of the ˜69 kDa protein band and analysis of DNA for complex formation. The 100-mer DNA fragment with two AP-1 sites or without an AP-1 site were used. On the native gel the high molecular weight band was not detected with the mutated proteins.
# [3] = molecular target: T1, biliverdin reductase (hBVR); assay: EMSA; settings: tags: rabbit reticulocyte lysate, 35S-Met labelled; chain copies: 2 (stated homodimer); label: 32P 5'
# Procedure: (§2) As with native gel analysis, in vitro translated proteins were assayed for DNA binding immediately after synthesis. 1 μl of translated material was added to 5000-500,000 cpm of [³²P]-labeled DNA fragment representing approximately 2-3 ng of DNA. 0.1 μg of poly (dI•dC) in 10 μl of DNA binding buffer was added to the labeled DNA. After incubating samples for 20 min at room temperature, 5 μl loading buffer was added. The samples were resolved on 12% native polyacrylamide gel with 35 m Amp at 4° C. The gels were processed as described above. Dried gels were put on two pieces of film separated by a piece of paper. Autoradiography was done at −70° C. for different time periods.
# (§3) To determine whether the synthesized HBVR binds to DNA, the in vitro translated hBVR was incubated with [³²P]-labeled 56-mer or 100-mer DNA fragments. An identical 56 bp fragment in which the AP-I site was substituted with an unrelated sequence of equal length was used as control DNA. In addition, two identical 100 bp fragments with one AP-1 or zero AP-1 sites were synthesized and used as controls (OL.619, OL.620; OL.623-OL.630, Table 1). […] Also, binding of E. coli expressed hBVR protein, which is in monomeric form, to the 100-mer DNA fragment with two AP-1 sites was not detected.
# [4] = molecular target: T2, heme oxygenase-1 (HO-1), in vitro …; assay: EMSA; specificity control; settings: tags: rabbit reticulocyte lysate; label: 32P 5'
# [5] = molecular target: T1, biliverdin reductase (hBVR); assay: EMSA; 10 mM Tris pH 7.4, 50 mM NaCl, 1 mM MgCl2, 1 mM EDTA, poly(dI-dC), room temperature; settings: tags: rabbit reticulocyte lysate, 35S-Met labelled; chain copies: 2 (stated homodimer); label: 32P 5'
# Procedure: as §2, §3
# [6] = molecular target: T3, heme oxygenase-1 (hHO-1), E. coli …; assay: EMSA; specificity control; settings: label: 32P 5'
# hBVR L150A = molecular target: T4, hBVR L150A; assay: EMSA; signal same as native hBVR with zero AP-1 DNA; settings: tags: rabbit reticulocyte lysate; chain copies: 2; label: 32P 5'
# Procedure: as §2, §1
# hBVR L157A = molecular target: T5, hBVR L157A; assay: as above; settings: tags: rabbit reticulocyte lysate; chain copies: 2; label: 32P 5'
# Procedure: as §2, §1
# hBVR K143A = molecular target: T6, hBVR K143A; assay: as above; settings: tags: rabbit reticulocyte lysate; chain copies: 2; label: 32P 5'
# Procedure: as §2, §1
binder,measurement,setting,value
"in vitro translated human biliverdin reductase (hBVR) (enzyme, the entries concern its self-association into a homodimer; also called translated hBVR; native in vitro translated hBVR) MNAEPERKFGVVVVGVGRAGSVRMRDLRNPHPSSAFLNLIGFVSRRELGSIDGVQQISLEDALSSQEVEVAYICSESSSHEDYIRQFLNAGKHVLVEYPMTLSLAAAQELWELAEQKGKVLHEEHVELLMEEFAFLKKEVVGKDLLKGSLLFTSDPLEEDRFGFPAFSGISRLTWLVSLFGELSLVSATLEERKEDQYMKMTVCLETEKKSPLSWIEEKGPGLKRNRYLSFHFKSGSLENVPNVGVNKNIFLKDQNIFVQKLLGQFSEKELAAEKKRILHCLGLAEEIQKYCCSRK",binding result,[1],binds
"in vitro translated hBVR mutant K143A (enzyme, Site-directed mutant made in p507 and translated in vitro with [35S] methionine; also called K3 mutant) MNAEPERKFGVVVVGVGRAGSVRMRDLRNPHPSSAFLNLIGFVSRRELGSIDGVQQISLEDALSSQEVEVAYICSESSSHEDYIRQFLNAGKHVLVEYPMTLSLAAAQELWELAEQKGKVLHEEHVELLMEEFAFLKKEVVGADLLKGSLLFTSDPLEEDRFGFPAFSGISRLTWLVSLFGELSLVSATLEERKEDQYMKMTVCLETEKKSPLSWIEEKGPGLKRNRYLSFHFKSGSLENVPNVGVNKNIFLKDQNIFVQKLLGQFSEKELAAEKKRILHCLGLAEEIQKYCCSRK",binding result,[2],no binding
"in vitro translated hBVR mutant L150A (enzyme, Site-directed mutant made in p507 and translated in vitro with [35S] methionine; also called L4 mutant) MNAEPERKFGVVVVGVGRAGSVRMRDLRNPHPSSAFLNLIGFVSRRELGSIDGVQQISLEDALSSQEVEVAYICSESSSHEDYIRQFLNAGKHVLVEYPMTLSLAAAQELWELAEQKGKVLHEEHVELLMEEFAFLKKEVVGKDLLKGSALFTSDPLEEDRFGFPAFSGISRLTWLVSLFGELSLVSATLEERKEDQYMKMTVCLETEKKSPLSWIEEKGPGLKRNRYLSFHFKSGSLENVPNVGVNKNIFLKDQNIFVQKLLGQFSEKELAAEKKRILHCLGLAEEIQKYCCSRK",binding result,[2],no binding
"in vitro translated hBVR mutant L157A (enzyme, Site-directed mutant made in p507 and translated in vitro with [35S] methionine; also called L5 mutant) MNAEPERKFGVVVVGVGRAGSVRMRDLRNPHPSSAFLNLIGFVSRRELGSIDGVQQISLEDALSSQEVEVAYICSESSSHEDYIRQFLNAGKHVLVEYPMTLSLAAAQELWELAEQKGKVLHEEHVELLMEEFAFLKKEVVGKDLLKGSLLFTSDPAEEDRFGFPAFSGISRLTWLVSLFGELSLVSATLEERKEDQYMKMTVCLETEKKSPLSWIEEKGPGLKRNRYLSFHFKSGSLENVPNVGVNKNIFLKDQNIFVQKLLGQFSEKELAAEKKRILHCLGLAEEIQKYCCSRK",binding result,[2],no binding
"56-mer, one AP-1 site (OL.627/OL.628) (dsDNA) DNA 1: CACTGAGAGAAACTATTACACAAGCCACATTAGCATGACTCATTGTTTCTGATCAG DNA 2: CTGATCAGAAACAATGAGTCATGCTAATGTGGCTTGTGTAATAGTTTCTCTCAGTG",binding result,[3],no binding
same,binding result,[4],no binding
"100-mer HO-1 promoter, two AP-1 sites (OL.623/OL.624) (dsDNA) DNA 1: TCCTCAGCTGCTTTTATGCTGTGTCATGGTTGGGAGGGGTGATTAGCAGACAAAGGGAAGACAGATTTTGCTGAGTCACCCTCTGTTCCCTCTGCCTCAG DNA 2: CTGAGGCAGAGGGAACAGAGGGTGACTCAGCAAAATCTGTCTTCCCTTTGTCTGCTAATCACCCCTCCCAACCATGACACAGCATAAAAGCAGCTGAGGA",binding result,[5],binds
same,binding result,[6],no binding
same,binding result,[4],no binding
same,binding result,hBVR L150A,no binding
same,binding result,hBVR L157A,no binding
same,binding result,hBVR K143A,no binding
